Source: the supplement of paper PMC10567573

B1: KRT13 (parent)
chain: KTIEELRDKILTATIENNRVILEI
B2: BTBD1 (parent)
chain: FVLGKGRGAAAAGGPQRIPAHRFV

Variants of: B1
Test: protein stability index of a GFP-peptide fusion (GPS, HEK-293T) (PSI 1-6); higher = more stable
Details: c terminus: a fixed tail appended
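Note: lentivirally expressed fusions sorted by FACS into six bins by GFP to DsRed ratio, PSI derived from sequencing read proportions per bin multiplied by bin number.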

Protein stability index: each site, then its substitutions
E5: M 4.08 | R 2.13 | A 2.6 | V 1.83 | W 2.82 | K 2.95 | P 3.07 | Y 4.43 | G 2.46 | I 3.5
N18: Y 2.01 | D 2.18 | S 2.99 | P 3.68 | G 2.33 | K 3.44 | I 2.9
E4: M 1.7 | S 3.44 | T 3.39 | R 3.26 | L 4.03 | V 2.4 | D 3.39 | F 3.99 | I 2.6
T12: R 1.88 | H 2.66 | D 1.76 | A 2.5 | P 2.42 | Y 3.8 | V 3.5
I3: E 2.13 | F 3.37 | G 3.54 | S 2.41 | T 2.91 | P 1.39 | N 2.43
I15: D 1.75 | T 2.6 | L 2.31 | E 1.69 | S 2.17 | K 3.7 | A 1.66 | Q 2.07 | P 2.17 | G 2.77
A13: M 1.08 | L 2.61 | R 3.35 | V 3 | N 2.31 | H 2.38 | P 1.87 | S 3.69 | D 1.53 | Q 1.81 | W 2.81
E23: H 2.05 | W 2.9 | V 3.08 | I 2.71 | F 4.41 | S 2.78 | K 1.25 | G 2.06 | Y 2.07
I21: L 2.52 | C 2.42 | H 2.49 | N 1.64 | V 2.6 | E 2.19 | R 2.49 | S 1.55 | F 3.3 | Y 2.79 | G 1.62 | M 2.18 | P 2.44
L11: A 1.3 | F 2.34 | Y 3.58 | D 1.57 | P 1.95 | M 2.94 | T 1.91 | C 2.33 | Q 2.72 | N 2.85 | K 1.59 | S 2.68 | E 1.92
T2: M 2.73 | D 2.88 | E 1.63 | L 2.35 | N 2.12 | Q 3.17 | K 2.6
V20: A 1.82 | L 3.48 | P 1.78 | Y 1.78 | N 2.57 | R 1.72 | H 1.6 | D 2.35 | S 2.01 | W 3.15 | I 2.69 | T 2.33
I10: E 2 | M 2.3 | G 1.69 | T 1.43 | P 2.7 | Q 1.54 | Y 3.2 | V 1.75 | C 2.28 | L 1.47 | F 3.07 | R 2.31 | K 1.55 | N 1.78 | S 2.2 | A 2.17
R7: K 1.51 | Q 2.85 | M 2.07 | P 1.15 | C 3.68 | D 2.25 | A 2.27 | N 2.38 | L 3.71 | I 2.6 | F 1.85
L6: E 1.85 | C 3.04 | M 1.98 | R 2.56 | G 1.47 | K 2.32 | Q 1.89 | I 2.5 | V 2.23 | T 2.46 | Y 3.18
I24: S 1.92 | D 3.09 | M 1.9 | C 2.44 | K 3.08 | V 2.97 | F 3 | G 2.63 | T 1.73 | L 3.35 | R 1.98 | P 3.4 | H 1.93 | E 2.65 | A 2.65
E16: F 3.08 | V 2.8 | Y 1.32 | C 2.33 | M 2.72 | G 2.38 | H 2.52 | W 3.31 | S 2.3 | Q 3.1
R19: N 1.76 | E 2.47 | H 3.1 | G 3.05 | Q 2.64 | M 2.14 | W 2.74 | T 2.99 | V 2.64 | D 2.11
D8: I 1.64 | S 2.79 | L 1.77 | P 2.46 | K 2.66 | Y 2.14 | Q 1.67 | A 2.49 | M 3.19
K1: T 2.34 | S 3.17 | N 2.48 | W 3.79 | E 2.38 | M 1.88 | P 1.24 | F 3.36 | H 2.09
T14: R 2.59 | L 1.71 | N 3.03 | P 2.52 | A 4.11 | C 3.4 | Q 2.99 | E 2.77 | M 2.52
K9: S 1.99 | D 2.24 | T 2.35 | E 2.7 | C 3.32 | F 2.7 | A 1.85 | N 2.29
L22: T 1.93 | Y 2.83 | S 2.1 | K 2.38 | A 2.2 | P 3.33 | R 2.14 | E 3.14 | C 2.8 | N 2.83 | V 2.97
N17: V 1.59 | E 2.73 | I 1.73 | T 3.19 | G 3.5 | M 2.57 | P 3.1 | K 2.4 | L 1.78

Variants of: B2
Test: as above
Details: c terminus: a fixed tail appended

Protein stability index of substitutions, site by site:
L3: N 2.12 | A 2.17 | Y 1.79 | M 1.92 | W 1.14 | S 3 | E 1.56 | Q 1.3 | F 1.61 | T 2.01 | G 1.61 | I 1.68 | H 2.63 | V 1.61 | C 1.67 | D 2.2 | K 2.2
K5: Q 1.8 | A 1.2 | Y 2.95 | P 1.74 | N 2.04 | C 1.66 | M 2.82 | R 2.08 | H 1.95 | D 1.89 | F 1.95 | S 1.98 | I 1.75 | L 1.59 | T 2.85 | V 1.38
G4: K 1.64 | N 2.36 | P 2.59 | Q 1.4 | S 1.61 | C 1.54 | V 2.3 | M 1.38 | Y 2.21 | F 2.27 | W 1.2 | R 2.33 | L 2.39 | A 1.73 | D 1.53 | T 1.46 | E 1.94 | I 1.98 | H 2
V2: E 3.38 | H 2.22 | A 1.99 | K 2.85 | W 1.76 | S 3.35 | L 1.97 | I 1.68 | M 2.21 | N 3.23 | Y 1.8 | G 2.74 | D 2.88 | Q 3 | F 1.67 | T 2.35 | C 2.18
G6: D 1.88 | A 1.97 | F 1.02 | E 2.1
F1: Q 3.28 | H 3.4 | L 2.51 | Y 1.26 | M 2.29 | A 2.66 | T 3.32 | I 1.91 | W 1.95 | S 2.92 | K 2.99 | P 3.04 | R 3.35 | C 2.22 | G 3.51 | N 3.31 | D 3.02 | V 2.21
